Data as given in the supplement of paper PMC5998384.

Key:
[1] = system: HeLa Kyoto; experiment: solubility in G1/S (NP-40 vs SDS abundance) (log2 ratio); higher = more soluble; settings: cell cycle stage: G1/S
[2] = system: HeLa Kyoto; experiment: melting temperature (median over replicates), in situ; higher = more thermally stable
[3] = system: HeLa Kyoto; experiment: solubility change mitosis vs G1/S (difference of NP-40 vs SDS log2 ratios) (log2 ratio difference); higher = more soluble in mitosis
[4] = system: HeLa Kyoto; experiment: thermal stability score vs G1/S (z-score of summed log2 fold changes over temperatures); higher = more thermally stable than in G1/S
[5] = cell cycle stage: early G1 (4.5 h after nocodazole release)
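Throughout, for melting temperature (median over replicates), in situ: HeLa Kyoto cells synchronized by double thymidine or nocodazole block, proteins quantified by TMT10plex mass spectrometry, three independent biological replicates.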
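Throughout, for solubility change mitosis vs G1/S (difference of NP-40 vs SDS log2 ratios): synchronized HeLa Kyoto cells (double thymidine block for G1/S, nocodazole release for mitosis), protein amounts in NP-40 versus SDS lysates quantified by mass spectrometry, three biological replicates.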
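Throughout, for solubility in G1/S (NP-40 vs SDS abundance): HeLa Kyoto cells arrested at G1/S by double thymidine block, proteins quantified by TMT10plex mass spectrometry in mild NP-40 versus SDS extracts, three biological replicates.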
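Throughout, for thermal stability score vs G1/S (z-score of summed log2 fold changes over temperatures): synchronized HeLa Kyoto cells, proteins quantified by TMT10plex mass spectrometry, three biological replicates, mitosis taken 0.5 h after nocodazole release, G1/S directly after double thymidine block.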

Sequence	solubility in G1/S (log2) [1]	melting temperature ([2]; cell cycle stage: G1/S) [°C]	melting temperature ([2]; cell cycle stage: mitosis) [°C]	solubility change mitosis (log2) [3]	thermal stability score [4, 5]	thermal stability score ([4]; cell cycle stage: mitosis)
MASPGIEVELLGKGHSDLGEVAPEIKASERRTAVAIADLEWREMEGDDCEFRYGDGTNEAQDNDFPTVERSRLQEMLSLLGLETYQVQKLSLQDSLQISFDSMKNWAPQVPKDLPWNFLRKLQALNADARNTTMVLDVLPDARPVEKESQMEEEIIYWDPADDLAADIYSFSELPTPDTPVNPLDLLCALLLSSDSFLQQEIALKMALCQFALPLVLPDSENHYHTFLLWAMRGIVRTWWSQPPRGMGSFREDSVVLSRAPAFAFVRMDVSSNSKSQLLNAVLSPGHRQWDCFWHRDLNLGTNAREISDGLVEISWFFPSGREDLDIFPEPVAFLNLRGDIGSHWLQFKLLTEISSAVFILTDNISKKEYKLLYSMKESTTKYYFILSPYRGKRNTNLRFLNKLIPVLKIDHSHVLVKVSSTDSDSFVKRIRAIVGNVLRAPCRRVSVEDMAHAARKLGLKVDEDCEECQKAKDRMERITRKIKDSDAYRRDELRLQGDPWRKAAQVEKEFCQLQWAVDPPEKHRAELRRRLLELRMQQNGHDPSSGVQEFISGISSPSLSEKQYFLRWMEWGLARVAQPRLRQPPETLLTLRPKHGGTTDVGEPLWPEPLGVEHFLREMGQFYEAESCLVEAGRLPAGQRRFAHFPGLASELLLTGLPLELIDGSTLSMPVRWVTGLLKELHVRLERRSRLVVLSTVGVPGTGKSTLLNTMFGLRFATGKSCGPRGAFMQLITVAEGFSQDLGCDHILVIDSGGLIGGALTSAGDRFELEASLATLLMGLSNVTVISLAETKDIPAAILHAFLRLEKTGHMPNYQFVYQNLHDVSVPGPRPRDKRQLLDPPGDLSRAAAQMEKQGDGFRALAGLAFCDPEKQHIWHIPGLWHGAPPMAAVSLAYSEAIFELKRCLLENIRNGLSNQNKNIQQLIELVRRL [URGCP]	-0.246	49.3	49.8	-0.0805	0.429	0.88
MASPSRRLQTKPVITCFKSVLLIYTFIFWITGVILLAVGIWGKVSLENYFSLLNEKATNVPFVLIATGTVIILLGTFGCFATCRASAWMLKLYAMFLTLVFLVELVAAIVGFVFRHEIKNSFKNNYEKALKQYNSTGDYRSHAVDKIQNTLHCCGVTDYRDWTDTNYYSEKGFPKSCCKLEDCTPQRDADKVNNEGCFIKVMTIIESEMGVVAGISFGVACFQLIGIFLAYCLSRAITNNQYEIV [TSPAN6]	-0.201	58.9	55.8	2.55e-05	0.413	-2.28
MASPVAAQAGKLLRALALRPRFLAAGSQAVQLTSRRWLNLQEYQSKKLMSDNGVRVQRFFVADTANEALEAAKRLNAKEIVLKAQILAGGRGKGVFNSGLKGGVHLTKDPNVVGQLAKQMIGYNLATKQTPKEGVKVNKVMVAEALDISRETYLAILMDRSCNGPVLVGSPQGGVDIEEVAASNPELIFKEQIDIFEGIKDSQAQRMAENLGFVGPLKSQAADQITKLYNLFLKIDATQVEVNPFGETPEGQVVCFDAKINFDDNAEFRQKDIFAMDDKSENEPIENEAAKYDLKYIGLDGNIACFVNGAGLAMATCDIIFLNGGKPANFLDLGGGVKEAQVYQAFKLLTADPKVEAILVNIFGGIVNCAIIANGITKACRELELKVPLVVRLEGTNVQEAQKILNNSGLPITSAIDLEDAAKKAVASVAKK [SUCLG2]	0.383	51.3	51.2	-0.104	0.0772	0.0477
MASQPPPPPKPWETRRIPGAGPGPGPGPTFQSADLGPTLMTRPGQPALTRVPPPILPRPSQQTGSSSVNTFRPAYSSFSSGYGAYGNSFYGGYSPYSYGYNGLGYNRLRVDDLPPSRFVQQAEESSRGAFQSIESIVHAFASVSMMMDATFSAVYNSFRAVLDVANHFSRLKIHFTKVFSAFALVRTIRYLYRRLQRMLGLRRGSENEDLWAESEGTVACLGAEDRAATSAKSWPIFLFFAVILGGPYLIWKLLSTHSDEVTDSINWASGEDDHVVARAEYDFAAVSEEEISFRAGDMLNLALKEQQPKVRGWLLASLDGQTTGLIPANYVKILGKRKGRKTVESSKVSKQQQSFTNPTLTKGATVADSLDEQEAAFESVFVETNKVPVAPDSIGKDGEKQDL [PEX13]	-0.182	53.5	53.4	0.116	-2.51	-2.78
MASSEQAEQPSQPSSTPGSENVLPREPLIATAVKFLQNSRVRQSPLATRRAFLKKKGLTDEEIDMAFQQSGTAADEPSSLGPATQVVPVQPPHLISQPYSPAGSRWRDYGALAIIMAGIAFGFHQLYKKYLLPLILGGREDRKQLERMEAGLSELSGSVAQTVTQLQTTLASVQELLIQQQQKIQELAHELAAAKATTSTNWILESQNINELKSEINSLKGLLLNRRQFPPSPSAPKIPSWQIPVKSPSPSSPAAVNHHSSSDISPVSNESTSSSPGKEGHSPEGSTVTYHLLGPQEEGEGVVDVKGQVRMEVQGEEEKREDKEDEEDEEDDDVSHVDEEDCLGVQREDRRGGDGQINEQVEKLRRPEGASNESERD [PEX14]	0.332	53.2	53.6	0.164	0.978	1.36
MASTTSTKKMMEEATCSICLSLMTNPVSINCGHSYCHLCITDFFKNPSQKQLRQETFCCPQCRAPFHMDSLRPNKQLGSLIEALKETDQEMSCEEHGEQFHLFCEDEGQLICWRCERAPQHKGHTTALVEDVCQGYKEKLQKAVTKLKQLEDRCTEQKLSTAMRITKWKEKVQIQRQKIRSDFKNLQCFLHEEEKSYLWRLEKEEQQTLSRLRDYEAGLGLKSNELKSHILELEEKCQGSAQKLLQNVNDTLSRSWAVKLETSEAVSLELHTMCNVSKLYFDVKKMLRSHQVSVTLDPDTAHHELILSEDRRQVTRGYTQENQDTSSRRFTAFPCVLGCEGFTSGRRYFEVDVGEGTGWDLGVCMENVQRGTGMKQEPQSGFWTLRLCKKKGYVALTSPPTSLHLHEQPLLVGIFLDYEAGVVSFYNGNTGCHIFTFPKASFSDTLRPYFQVYQYSPLFLPPPGD [TRIM38]	-0.661		48.8	0.155	-0.0637	-0.487
MASVAAARAVPVGSGLRGLQRTLPLVVILGATGTGKSTLALQLGQRLGGEIVSADSMQVYEGLDIITNKVSAQEQRICRHHMISFVDPLVTNYTVVDFRNRATALIEDIFARDKIPIVVGGTNYYIESLLWKVLVNTKPQEMGTEKVIDRKVELEKEDGLVLHKRLSQVDPEMAAKLHPHDKRKVARSLQVFEETGISHSEFLHRQHTEEGGGPLGGPLKFSNPCILWLHADQAVLDERLDKRVDDMLAAGLLEELRDFHRRYNQKNVSENSQDYQHGIFQSIGFKEFHEYLITEGKCTLETSNQLLKKGIEALKQVTKRYARKQNRWVKNRFLSRPGPIVPPVYGLEVSDVSKWEESVLEPALEIVQSFIQGHKPTATPIKMPYNEAENKRSYHLCDLCDRIIIGDREWAAHIKSKSHLNQLKKRRRLDSDAVNTIESQSVSPDHNKEPKEKGSPGQNDQELKCSV [TRIT1]	0.0861	53.3	49.1	-0.137	-0.00673	0.208
MASVAVDPQPSVVTRVVNLPLVSSTYDLMSSAYLSTKDQYPYLKSVCEMAENGVKTITSVAMTSALPIIQKLEPQIAVANTYACKGLDRIEERLPILNQPSTQIVANAKGAVTGAKDAVTTTVTGAKDSVASTITGVMDKTKGAVTGSVEKTKSVVSGSINTVLGSRMMQLVSSGVENALTKSELLVEQYLPLTEEELEKEAKKVEGFDLVQKPSYYVRLGSLSTKLHSRAYQQALSRVKEAKQKSQQTISQLHSTVHLIEFARKNVYSANQKIQDAQDKLYLSWVEWKRSIGYDDTDESHCAEHIESRTLAIARNLTQQLQTTCHTLLSNIQGVPQNIQDQAKHMGVMAGDIYSVFRNAASFKEVSDSLLTSSKGQLQKMKESLDDVMDYLVNNTPLNWLVGPFYPQLTESQNAQDQGAEMDKSSQETQRSEHKTH [PLIN2]	0.307	53.2	53.3	0.0233	0.285	0.347
MASVVLPSGSQCAAAAAAAAPPGLRLRLLLLLFSAAALIPTGDGQNLFTKDVTVIEGEVATISCQVNKSDDSVIQLLNPNRQTIYFRDFRPLKDSRFQLLNFSSSELKVSLTNVSISDEGRYFCQLYTDPPQESYTTITVLVPPRNLMIDIQKDTAVEGEEIEVNCTAMASKPATTIRWFKGNTELKGKSEVEEWSDMYTVTSQLMLKVHKEDDGVPVICQVEHPAVTGNLQTQRYLEVQYKPQVHIQMTYPLQGLTREGDALELTCEAIGKPQPVMVTWVRVDDEMPQHAVLSGPNLFINNLNKTDNGTYRCEASNIVGKAHSDYMLYVYDPPTTIPPPTTTTTTTTTTTTTILTIITDSRAGEEGSIRAVDHAVIGGVVAVVVFAMLCLLIILGRYFARHKGTYFTHEAKGADDAADADTAIINAEGGQNNSEEKKEYFI [CADM1]	-0.145	61.3	58.9	-0.0334	0.625	0.622
MASVWQRLGFYASLLKRQLNGGPDVIKWERRVIPGCTRSIYSATGKWTKEYTLQTRKDVEKWWHQRIKEQASKISEADKSKPKFYVLSMFPYPSGKLHMGHVRVYTISDTIARFQKMRGMQVINPMGWDAFGLPAENAAVERNLHPQSWTQSNIKHMRKQLDRLGLCFSWDREITTCLPDYYKWTQYLFIKLYEAGLAYQKEALVNWDPVDQTVLANEQVDEHGCSWRSGAKVEQKYLRQWFIKTTAYAKAMQDALADLPEWYGIKGMQAHWIGDCVGCHLDFTLKVHGQATGEKLTAYTATPEAIYGTSHVAISPSHRLLHGHSSLKEALRMALVPGKDCLTPVMAVNMLTQQEVPVVILAKADLEGSLDSKIGIPSTSSEDTILAQTLGLAYSEVIETLPDGTERLSSSAEFTGMTRQDAFLALTQKARGKRVGGDVTSDKLKDWLISRQRYWGTPIPIVHCPVCGPTPVPLEDLPVTLPNIASFTGKGGPPLAMASEWVNCSCPRCKGAAKRETDTMDTFVDSAWYYFRYTDPHNPHSPFNTAVADYWMPVDLYIGGKEHAVMHLFYARFFSHFCHDQKMVKHREPFHKLLAQGLIKGQTFRLPSGQYLQREEVDLTGSVPVHAKTKEKLEVTWEKMSKSKHNGVDPEEVVEQYGIDTIRLYILFAAPPEKDILWDVKTDALPGVLRWQQRLWTLTTRFIEARASGKSPQPQLLSNKEKAEARKLWEYKNSVISQVTTHFTEDFSLNSAISQLMGLSNALSQASQSVILHSPEFEDALCALMVMAAPLAPHVTSEIWAGLALVPRKLCAHYTWDASVLLQAWPAVDPEFLQQPEVVQMAVLINNKACGKIPVPQQVARDQDKVHEFVLQSELGVRLLQGRSIKKSFLSPRTALINFLVQD [LARS2]	-0.045	49.7	49.9	-0.0972	0.0823	0.851
MASYPYRQGCPGAAGQAPGAPPGSYYPGPPNSGGQYGSGLPPGGGYGGPAPGGPYGPPAGGGPYGHPNPGMFPSGTPGGPYGGAAPGGPYGQPPPSSYGAQQPGLYGQGGAPPNVDPEAYSWFQSVDSDHSGYISMKELKQALVNCNWSSFNDETCLMMINMFDKTKSGRIDVYGFSALWKFIQQWKNLFQQYDRDRSGSISYTELQQALSQMGYNLSPQFTQLLVSRYCPRSANPAMQLDRFIQVCTQLQVLTEAFREKDTAVQGNIRLSFEDFVTMTASRML [PEF1]	-0.126	53.5	53.2	0.345	-1.46	-1.2
